Data from publication PMC10421740, “A universal deep-learning model for zinc finger design enables transcription factor reprogramming”.

Columns and labels:
[1] = target: ZFN pair 12BC_substituted + 12ED_substituted (synthetic construct, UniProt P14870;P14870 384-579;384-579); assay: Zn; U2OS eGFP disruption, 3 days after nucleofection; conditions: tags: N-terminal 3xFLAG and SV40 NLS (kept in the assay, left out here); copies: 1;1
[2] = target: T1, ZFN pair 12BC_selected + 12ED_selected (synthetic construct, UniProt P14870;P14870 384-579;384-579); assay: as above; conditions: tags: N-terminal 3xFLAG and SV40 NLS (kept in the assay, left out here); copies: 1;1
T1 chain 1: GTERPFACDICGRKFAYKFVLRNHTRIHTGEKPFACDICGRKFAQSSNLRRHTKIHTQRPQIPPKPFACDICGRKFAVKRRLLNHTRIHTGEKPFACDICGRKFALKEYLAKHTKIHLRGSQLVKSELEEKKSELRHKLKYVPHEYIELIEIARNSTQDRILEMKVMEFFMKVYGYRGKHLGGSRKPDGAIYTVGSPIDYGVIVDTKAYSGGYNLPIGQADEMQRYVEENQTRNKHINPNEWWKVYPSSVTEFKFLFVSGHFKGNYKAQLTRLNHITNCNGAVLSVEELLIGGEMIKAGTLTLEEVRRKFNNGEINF
T1 chain 2: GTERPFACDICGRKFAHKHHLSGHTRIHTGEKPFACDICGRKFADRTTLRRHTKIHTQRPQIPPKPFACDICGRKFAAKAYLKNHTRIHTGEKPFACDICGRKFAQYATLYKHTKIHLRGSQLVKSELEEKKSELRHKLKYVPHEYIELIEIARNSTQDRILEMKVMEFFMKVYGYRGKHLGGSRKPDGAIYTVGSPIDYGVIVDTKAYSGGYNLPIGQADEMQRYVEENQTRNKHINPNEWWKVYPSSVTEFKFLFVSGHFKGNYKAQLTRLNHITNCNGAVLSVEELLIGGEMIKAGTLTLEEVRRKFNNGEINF

[3] = target: ZFN pair 12BC_designed + 12ED_designed (synthetic construct, UniProt P14870;P14870 384-579;384-579); assay: as above; conditions: tags: N-terminal 3xFLAG and SV40 NLS (kept in the assay, left out here); copies: 1;1
[4] = target: ZIM3 reprogrammed with array DPH1TSSR (synthetic construct, UniProt Q96PE6 1-166); assay: Zn; HEK293T, RT-qPCR 3 days after transfection
Chain of ZIM3 reprogrammed with array DPH1TSSR (Q96PE6 other isoform, or with tags, fused parts or gaps): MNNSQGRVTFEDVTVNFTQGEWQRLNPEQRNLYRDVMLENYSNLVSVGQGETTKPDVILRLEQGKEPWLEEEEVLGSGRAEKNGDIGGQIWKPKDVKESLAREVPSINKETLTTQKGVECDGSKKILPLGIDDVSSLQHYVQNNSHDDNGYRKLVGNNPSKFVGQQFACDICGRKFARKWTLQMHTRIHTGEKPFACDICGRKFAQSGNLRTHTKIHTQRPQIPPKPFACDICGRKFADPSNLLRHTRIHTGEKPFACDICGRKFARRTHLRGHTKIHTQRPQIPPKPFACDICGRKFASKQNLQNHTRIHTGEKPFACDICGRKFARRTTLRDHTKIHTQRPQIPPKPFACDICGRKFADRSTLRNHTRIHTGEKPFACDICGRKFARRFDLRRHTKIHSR

[5] = target: ZIM3 reprogrammed with array Rab1a T2R8 (synthetic construct, UniProt Q96PE6 1-166); assay: Zn; HEK293T, RT-qPCR 3 days after transfection
Chain of ZIM3 reprogrammed with array Rab1a T2R8 (Q96PE6 other isoform, or with tags, fused parts or gaps): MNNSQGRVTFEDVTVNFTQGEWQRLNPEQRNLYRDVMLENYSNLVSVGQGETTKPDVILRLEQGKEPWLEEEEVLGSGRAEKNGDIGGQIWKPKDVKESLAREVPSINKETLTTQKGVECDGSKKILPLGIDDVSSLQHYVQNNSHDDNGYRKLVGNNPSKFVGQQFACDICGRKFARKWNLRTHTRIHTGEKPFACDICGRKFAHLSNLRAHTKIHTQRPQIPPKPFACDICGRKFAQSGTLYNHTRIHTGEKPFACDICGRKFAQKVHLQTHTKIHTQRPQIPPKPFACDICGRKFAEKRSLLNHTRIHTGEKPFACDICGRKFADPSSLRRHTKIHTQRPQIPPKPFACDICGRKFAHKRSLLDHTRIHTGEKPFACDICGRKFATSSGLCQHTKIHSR

[6] = target: ZIM3 reprogrammed with array UBE4A T1F8 (synthetic construct, UniProt Q96PE6 1-166); assay: Zn; HEK293T, RT-qPCR 3 days after transfection
Chain of ZIM3 reprogrammed with array UBE4A T1F8 (Q96PE6 other isoform, or with tags, fused parts or gaps): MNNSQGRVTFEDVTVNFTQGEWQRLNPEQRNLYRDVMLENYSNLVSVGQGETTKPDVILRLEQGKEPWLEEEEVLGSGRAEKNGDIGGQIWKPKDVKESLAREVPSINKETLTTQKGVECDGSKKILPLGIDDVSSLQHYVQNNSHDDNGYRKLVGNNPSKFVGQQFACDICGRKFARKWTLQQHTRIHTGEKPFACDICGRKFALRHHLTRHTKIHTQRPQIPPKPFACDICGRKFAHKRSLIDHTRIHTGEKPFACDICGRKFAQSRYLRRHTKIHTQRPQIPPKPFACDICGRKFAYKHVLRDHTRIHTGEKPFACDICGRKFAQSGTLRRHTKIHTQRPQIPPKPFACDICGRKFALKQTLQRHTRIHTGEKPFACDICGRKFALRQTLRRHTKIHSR

[7] = target: ZIM3 reprogrammed with array UBE4A T1R8 (synthetic construct, UniProt Q96PE6 1-166); assay: Zn; HEK293T, RT-qPCR 3 days after transfection
Chain of ZIM3 reprogrammed with array UBE4A T1R8 (Q96PE6 other isoform, or with tags, fused parts or gaps): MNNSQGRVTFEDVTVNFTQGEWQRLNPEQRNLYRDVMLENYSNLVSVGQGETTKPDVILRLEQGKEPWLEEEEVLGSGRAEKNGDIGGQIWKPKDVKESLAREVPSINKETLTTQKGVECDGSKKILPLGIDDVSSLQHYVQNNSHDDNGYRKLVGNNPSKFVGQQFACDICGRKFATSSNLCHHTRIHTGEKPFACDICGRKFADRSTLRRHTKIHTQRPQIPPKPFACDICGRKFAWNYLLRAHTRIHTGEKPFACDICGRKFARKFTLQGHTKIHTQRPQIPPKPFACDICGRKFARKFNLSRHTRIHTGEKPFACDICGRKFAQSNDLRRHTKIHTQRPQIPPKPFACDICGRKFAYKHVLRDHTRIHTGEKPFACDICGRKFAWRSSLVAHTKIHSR

[8] = target: ZFN pair 18BC_selected + 18ED_selected (synthetic construct, UniProt P14870;P14870 384-579;384-579); assay: Zn; U2OS eGFP disruption, 3 days after nucleofection; conditions: tags: N-terminal 3xFLAG and SV40 NLS (kept in the assay, left out here); copies: 1;1
[9] = target: ZFN pair 18BC_designed + 18ED_designed (synthetic construct, UniProt P14870;P14870 384-579;384-579); assay: as above; conditions: tags: N-terminal 3xFLAG and SV40 NLS (kept in the assay, left out here); copies: 1;1
[10] = target: ZFN pair 10BC_designed + 10ED_designed (synthetic construct, UniProt P14870;P14870 384-579;384-579); assay: as above; conditions: tags: N-terminal 3xFLAG and SV40 NLS (kept in the assay, left out here); copies: 1;1
[11] = target: ZFN pair 10BC_substituted + 10ED_substituted (synthetic construct, UniProt P14870;P14870 384-579;384-579); assay: as above; conditions: tags: N-terminal 3xFLAG and SV40 NLS (kept in the assay, left out here); copies: 1;1
[12] = target: ZFN pair 10BC_selected + 10ED_selected (synthetic construct, UniProt P14870;P14870 384-579;384-579); assay: as above; conditions: tags: N-terminal 3xFLAG and SV40 NLS (kept in the assay, left out here); copies: 1;1
array CDKN1C 125RC = array CDKN1C 125RC (synthetic construct); assay: Zn; HEK293T, RNA-seq; conditions: tags: N-terminal SV40 NLS, C-terminal GS linker + VP64 (left out)
Chain of array CDKN1C 125RC (synthetic construct) (chain, as listed by the source): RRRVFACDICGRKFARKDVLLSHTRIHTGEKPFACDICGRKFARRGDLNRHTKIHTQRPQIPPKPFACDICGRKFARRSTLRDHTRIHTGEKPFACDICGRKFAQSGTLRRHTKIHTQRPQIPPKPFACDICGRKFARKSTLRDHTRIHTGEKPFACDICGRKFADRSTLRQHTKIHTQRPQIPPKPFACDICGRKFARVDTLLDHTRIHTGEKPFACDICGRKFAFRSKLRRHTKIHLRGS

[13] = target: ZIM3 reprogrammed with array DPH1T2F8 (synthetic construct, UniProt Q96PE6 1-166); assay: Zn; HEK293T, RT-qPCR 3 days after transfection
Chain of ZIM3 reprogrammed with array DPH1T2F8 (Q96PE6 other isoform, or with tags, fused parts or gaps): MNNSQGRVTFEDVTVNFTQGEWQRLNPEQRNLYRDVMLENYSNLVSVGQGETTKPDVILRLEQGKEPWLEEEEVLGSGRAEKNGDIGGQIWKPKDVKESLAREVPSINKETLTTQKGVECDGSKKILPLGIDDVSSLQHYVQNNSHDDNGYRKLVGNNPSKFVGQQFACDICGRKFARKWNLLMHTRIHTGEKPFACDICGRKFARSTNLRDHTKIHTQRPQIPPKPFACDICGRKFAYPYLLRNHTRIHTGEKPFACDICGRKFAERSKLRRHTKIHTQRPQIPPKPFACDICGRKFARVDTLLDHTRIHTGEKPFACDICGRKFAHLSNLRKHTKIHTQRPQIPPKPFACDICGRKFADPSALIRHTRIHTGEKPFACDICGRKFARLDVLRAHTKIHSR

[14] = target: ZIM3 reprogrammed with array DPH1_15 F1-8 Q (synthetic construct, UniProt Q96PE6 1-166); assay: Zn; HEK293T, RT-qPCR 3 days after transfection
Chain of ZIM3 reprogrammed with array DPH1_15 F1-8 Q (Q96PE6 other isoform, or with tags, fused parts or gaps): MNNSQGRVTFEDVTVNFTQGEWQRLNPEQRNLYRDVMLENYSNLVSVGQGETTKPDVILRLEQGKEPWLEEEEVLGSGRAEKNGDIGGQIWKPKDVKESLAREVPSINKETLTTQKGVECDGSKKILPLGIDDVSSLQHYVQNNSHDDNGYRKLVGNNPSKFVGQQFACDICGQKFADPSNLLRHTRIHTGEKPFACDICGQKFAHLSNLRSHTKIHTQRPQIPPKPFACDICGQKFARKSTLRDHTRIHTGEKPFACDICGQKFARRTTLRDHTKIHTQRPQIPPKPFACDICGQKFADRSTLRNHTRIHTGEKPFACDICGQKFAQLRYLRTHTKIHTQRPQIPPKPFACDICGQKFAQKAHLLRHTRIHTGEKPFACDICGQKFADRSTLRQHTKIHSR

[15] = target: ZIM3 reprogrammed with array DPH1_15 (synthetic construct, UniProt Q96PE6 1-166); assay: Zn; HEK293T, RT-qPCR 3 days after transfection
Chain of ZIM3 reprogrammed with array DPH1_15 (Q96PE6 other isoform, or with tags, fused parts or gaps): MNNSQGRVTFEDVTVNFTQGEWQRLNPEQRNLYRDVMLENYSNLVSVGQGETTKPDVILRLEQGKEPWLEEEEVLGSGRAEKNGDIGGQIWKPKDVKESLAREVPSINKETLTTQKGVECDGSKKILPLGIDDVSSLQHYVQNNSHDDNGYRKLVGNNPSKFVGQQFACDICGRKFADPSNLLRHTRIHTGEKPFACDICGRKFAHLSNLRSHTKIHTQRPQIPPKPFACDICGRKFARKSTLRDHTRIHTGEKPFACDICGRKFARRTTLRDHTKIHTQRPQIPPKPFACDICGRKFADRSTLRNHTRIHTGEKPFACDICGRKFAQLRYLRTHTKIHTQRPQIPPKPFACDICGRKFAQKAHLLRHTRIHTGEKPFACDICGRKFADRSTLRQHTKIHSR

[16] = target: ZIM3 reprogrammed with array DPH1_15 F1-6 (synthetic construct, UniProt Q96PE6 1-166); assay: Zn; HEK293T, RT-qPCR 3 days after transfection
Chain of ZIM3 reprogrammed with array DPH1_15 F1-6 (Q96PE6 other isoform, or with tags, fused parts or gaps): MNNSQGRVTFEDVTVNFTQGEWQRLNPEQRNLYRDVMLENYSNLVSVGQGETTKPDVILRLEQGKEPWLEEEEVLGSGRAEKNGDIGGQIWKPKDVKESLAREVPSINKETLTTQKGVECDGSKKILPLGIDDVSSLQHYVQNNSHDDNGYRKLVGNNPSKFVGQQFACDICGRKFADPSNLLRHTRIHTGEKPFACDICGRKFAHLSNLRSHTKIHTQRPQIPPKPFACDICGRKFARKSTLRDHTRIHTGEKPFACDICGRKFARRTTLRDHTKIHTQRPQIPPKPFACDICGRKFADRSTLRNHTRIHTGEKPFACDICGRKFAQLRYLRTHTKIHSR

[17] = target: ZIM3 reprogrammed with array DPH1_15 F3-8 (synthetic construct, UniProt Q96PE6 1-166); assay: Zn; HEK293T, RT-qPCR 3 days after transfection
Chain of ZIM3 reprogrammed with array DPH1_15 F3-8 (Q96PE6 other isoform, or with tags, fused parts or gaps): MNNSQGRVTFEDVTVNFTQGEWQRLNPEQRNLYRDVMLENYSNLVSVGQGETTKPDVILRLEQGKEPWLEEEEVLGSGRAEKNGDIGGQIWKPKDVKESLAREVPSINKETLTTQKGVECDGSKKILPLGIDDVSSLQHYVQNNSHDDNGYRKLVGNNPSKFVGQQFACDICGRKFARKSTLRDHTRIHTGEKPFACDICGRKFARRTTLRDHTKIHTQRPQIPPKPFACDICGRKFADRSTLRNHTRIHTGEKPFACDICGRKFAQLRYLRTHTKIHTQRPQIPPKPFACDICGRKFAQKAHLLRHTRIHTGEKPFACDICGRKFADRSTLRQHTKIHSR

[18] = target: ZIM3 reprogrammed with array DPH1T2R8 (synthetic construct, UniProt Q96PE6 1-166); assay: Zn; HEK293T, RT-qPCR 3 days after transfection
Chain of ZIM3 reprogrammed with array DPH1T2R8 (Q96PE6 other isoform, or with tags, fused parts or gaps): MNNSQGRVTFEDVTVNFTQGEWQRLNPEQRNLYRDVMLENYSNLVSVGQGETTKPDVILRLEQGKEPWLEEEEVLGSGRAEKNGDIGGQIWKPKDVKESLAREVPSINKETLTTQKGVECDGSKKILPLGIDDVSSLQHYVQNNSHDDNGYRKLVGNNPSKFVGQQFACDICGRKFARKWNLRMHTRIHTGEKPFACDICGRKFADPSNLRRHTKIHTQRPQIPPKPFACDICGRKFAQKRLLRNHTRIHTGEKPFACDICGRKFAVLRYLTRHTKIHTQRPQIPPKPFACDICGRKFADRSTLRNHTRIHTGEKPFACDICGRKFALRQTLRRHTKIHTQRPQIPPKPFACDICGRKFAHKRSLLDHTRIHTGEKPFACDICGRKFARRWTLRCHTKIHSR

[19] = target: T2, KLF6 reprogrammed with array CDKN1C_200 8Q (synthetic construct, UniProt Q99612 1-199); assay: Zn; HEK293T, RT-qPCR 3 days after transfection; conditions: tags: C-terminal linker + 3xFLAG (left out)
T2 chain: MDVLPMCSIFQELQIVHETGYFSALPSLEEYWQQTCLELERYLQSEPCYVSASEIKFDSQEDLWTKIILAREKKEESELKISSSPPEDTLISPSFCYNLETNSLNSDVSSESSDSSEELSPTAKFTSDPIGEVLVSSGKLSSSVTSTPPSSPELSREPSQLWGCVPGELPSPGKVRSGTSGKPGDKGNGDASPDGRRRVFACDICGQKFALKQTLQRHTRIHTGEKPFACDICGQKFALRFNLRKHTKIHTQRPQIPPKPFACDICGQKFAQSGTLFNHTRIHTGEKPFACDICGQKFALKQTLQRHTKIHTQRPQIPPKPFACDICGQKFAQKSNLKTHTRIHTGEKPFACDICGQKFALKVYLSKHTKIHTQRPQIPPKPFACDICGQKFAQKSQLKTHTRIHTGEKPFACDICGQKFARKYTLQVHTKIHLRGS

[20] = target: T3, KLF6 reprogrammed with array CDKN1C_200 F3-8 (synthetic construct, UniProt Q99612 1-199); assay: Zn; HEK293T, RT-qPCR 3 days after transfection
T3 chain: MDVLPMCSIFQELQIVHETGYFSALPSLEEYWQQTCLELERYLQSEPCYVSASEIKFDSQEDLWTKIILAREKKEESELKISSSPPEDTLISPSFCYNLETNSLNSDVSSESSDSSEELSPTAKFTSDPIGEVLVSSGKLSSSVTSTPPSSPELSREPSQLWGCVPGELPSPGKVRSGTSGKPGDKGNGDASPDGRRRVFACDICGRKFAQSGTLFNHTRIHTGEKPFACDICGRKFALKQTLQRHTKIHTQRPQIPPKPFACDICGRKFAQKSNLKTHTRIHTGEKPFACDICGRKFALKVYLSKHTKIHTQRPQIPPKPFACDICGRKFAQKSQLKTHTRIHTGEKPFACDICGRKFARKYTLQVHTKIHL

[21] = target: T4, KLF6 reprogrammed with array CDKN1C_200 (synthetic construct, UniProt Q99612 1-199); assay: Zn; HEK293T, RT-qPCR 3 days after transfection
T4 chain: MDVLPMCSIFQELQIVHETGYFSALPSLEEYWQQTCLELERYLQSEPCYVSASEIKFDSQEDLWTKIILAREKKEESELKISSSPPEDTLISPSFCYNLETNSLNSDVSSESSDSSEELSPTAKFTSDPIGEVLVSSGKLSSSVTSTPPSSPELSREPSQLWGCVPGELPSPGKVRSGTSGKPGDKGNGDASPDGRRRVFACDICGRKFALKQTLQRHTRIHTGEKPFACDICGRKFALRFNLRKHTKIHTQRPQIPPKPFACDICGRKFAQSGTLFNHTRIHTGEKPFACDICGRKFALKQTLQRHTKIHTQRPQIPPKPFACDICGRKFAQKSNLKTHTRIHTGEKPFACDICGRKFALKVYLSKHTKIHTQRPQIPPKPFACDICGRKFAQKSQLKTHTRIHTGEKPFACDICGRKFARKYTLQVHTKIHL

B1: eGFP site 12 (8 fingers) (dsDNA)
DNA 1: GAAGTTCATCTGCACCACCGGCAAGCTGCCCGTG
DNA 2: CACGGGCAGCTTGCCGGTGGTGCAGATGAACTTC
- binding signal [1]: ~58 % GFP-negative cells (higher = more activity)
- binding signal [2]: ~65 % GFP-negative cells (higher = more activity)
- binding signal [3]: ~24 % GFP-negative cells (higher = more activity)

B2: DPH1TSSR (dsDNA)
DNA 1: CCTGCCTGCGCATGTGGTACTAAAAAGA
DNA 2: TCTTTTTAGTACCACATGCGCAGGCAGG
- binding signal [4]: ~0.58 relative expression (lower = more activity, repressor)

B3: Rab1a T2R8 (dsDNA)
DNA 1: CTACTCCGTCCCCTAGAACACAATCAGC
DNA 2: GCTGATTGTGTTCTAGGGGACGGAGTAG
- binding signal [5]: ~0.41 relative expression (lower = more activity, repressor)

B4: UBE4A T1F8 (dsDNA)
DNA 1: GCTGCTGGCACTTCAGGCTCTGGTAAGA
DNA 2: TCTTACCAGAGCCTGAAGTGCCAGCAGC
- binding signal [6]: ~0.57 relative expression (lower = more activity, repressor)

B5: UBE4A T1R8 (dsDNA)
DNA 1: TGTCTTACCAGAGCCTGAAGTGCCAGCA
DNA 2: TGCTGGCACTTCAGGCTCTGGTAAGACA
- binding signal [7]: ~0.22 relative expression (lower = more activity, repressor)

B6: eGFP site 18 (8 fingers) (dsDNA)
DNA 1: GCAGCACGACTTCTTCAAGTCCGCCATGCCCGAA
DNA 2: TTCGGGCATGGCGGACTTGAAGAAGTCGTGCTGC
- binding signal [8]: ~47 % GFP-negative cells (higher = more activity)
- binding signal [9]: ~70 % GFP-negative cells (higher = more activity)

B7: eGFP site 10 (8 fingers) (dsDNA)
DNA 1: TACGGCAAGCTGACCCTGAAGTTCATCTGCACCA
DNA 2: TGGTGCAGATGAACTTCAGGGTCAGCTTGCCGTA
- binding signal [10]: ~28 % GFP-negative cells (higher = more activity)
- binding signal [11]: ~38 % GFP-negative cells (higher = more activity)
- binding signal [12]: ~59 % GFP-negative cells (higher = more activity)

B8: CDK125RC (dsDNA)
DNA 1: GCGGCCCGGCCCCCGCGCACCGCCCATTGGC
DNA 2: GCCAATGGGCGGTGCGCGGGGGCCGGGCCGC
- binding signal (array CDKN1C 125RC): ~2.2 log2 fold change (RNA-seq) (higher = more activity)

B9: DPH1T2F8 (dsDNA)
DNA 1: CTGGTCGTATCCGGGGCAGCGGAGCAGG
DNA 2: CCTGCTCCGCTGCCCCGGATACGACCAG
- binding signal [13]: ~0.67 relative expression (lower = more activity, repressor)

B10: DPH1_15 (dsDNA)
DNA 1: CCCGGATACGACCAGCGCCGCCATCACC
DNA 2: GGTGATGGCGGCGCTGGTCGTATCCGGG
- binding signal [14]: ~0.67 relative expression (lower = more activity, repressor)
- binding signal [15]: ~0.13 relative expression (lower = more activity, repressor)
- binding signal [16]: ~0.62 relative expression (lower = more activity, repressor)
- binding signal [17]: ~0.12 relative expression (lower = more activity, repressor)

B11: DPH1T2R8 (dsDNA)
DNA 1: CTGCTCCGCTGCCCCGGATACGACCAGC
DNA 2: GCTGGTCGTATCCGGGGCAGCGGAGCAG
- binding signal [18]: ~0.77 relative expression (lower = more activity, repressor)

B12: CDKN1C_200 (dsDNA)
DNA 1: TTGAAACTGAAAATACTACATTATGCTA
DNA 2: TAGCATAATGTAGTATTTTCAGTTTCAA
- binding signal [19]: ~11 relative expression (higher = more activity)
- binding signal [20]: ~3.2 relative expression (higher = more activity)
- binding signal [21]: ~17 relative expression (higher = more activity)
